This note sets out measurements from US20170246212A1, “METHODS TO UPREGULATE AND SUPPRESS AN EXPRESSION OF IMMUNOMODULATORY CELLS” (National Health Research Institutes, priority 2014, published 2017).

Assay [1] concerns PD-L1 surface expression on monocytes. The assay can be described thus: PD-L1 surface expression on human monocytes from PBLs, flow cytometry. Format: cell-based. Particulars: for IL-25-mediated induction of PD-L1 in human primary monocytes: inhibitor pretreatment (WP1066 2.5 μM; SP600125 25 μM; PD98059 20 μM; LY294002 10 μM; Akt inhibitor III 10 μM), then 100 ng/ml rhIL-25 for 18 hours. As for the experimental part:
FIG. 9. IL-25-mediated PD-L1 expression in human monocytes and hMSCs is mediated through JNK and STAT3 with STAT3 involved in transcriptional control of PD-L1. (A) Human PBLs were pretreated with inhibitors of STAT3 (WP1066; 2.5 μM), JNK (SP600125; 25 μM), or MEK1 (PD98059; 20 μM) prior to 100 ng/ml rhIL-25 for 18 hours, with subsequent flow cytometric analysis for PD-L1 surface expression on monocytes, gated using FSC and SSC. Filled histograms represent isotype control. Unfilled histograms represent PD-L1 antibody staining. Pooled data (3 donors) provided in (B) with bars representing MFI. hMSCs were treated with inhibitors of (C) STAT3 (WP1066; 2.5 μM) and (D) JNK (SP600125; 25 μM) for 6 hours, and subsequently assessed by flow cytometric analysis for PD-L1 surface expression. Pooled data (all 3 donors) for each respective inhibitor provided (left charts) with bars representing MFI. (D) Putative GAS elements (STAT-binding sites) in the proximal promoter region of human PD-L1 gene; 700 bp region upstream from the transcription start site), as determined with TFSearch web-based software. (E) Binding of STAT3 or IgG (negative control) in hMSCs was analyzed by chromatin immunoprecipitation (ChIP) with promoter-specific primers for region 1 and region 2. The input samples (positive control) represent 1% starting chromatin. (F) Schematic of model of hMSC-mediated suppression of Th17 responses involving IL-25/STAT3/PD-L1 axis.
FIG. 10. Involvement of signal pathways for IL-25-induced expression of PD-L1 in human peripheral blood monocytes. (A) Pooled data (3 donors) of PD-L1 expression (shown as MFI) after MEK inhibition. (B) Human peripheral blood monocytes were pretreated with inhibitors of PI3K (LY294002; 10 μM) or Akt (Akt inhibitor III; 10 μM), followed by 100 ng/ml IL-25 stimulation. After IL-25 treatment for 18 hours, the expression of PD-L1 was assessed by cell surface staining. Pooled data (3 donors) provided in (C) of PD-L1 expression (shown as MFI). A.U., arbitrary units. […]

The subject of assay [2] is PD-L1 surface expression on hMSCs. The assay can be described thus: PD-L1 surface expression on hMSCs, flow cytometry. Format: cell-based, human. As for the experimental part: FIG. 7. IL-25 induces PD-L1 surface expression on hMSCs and human monocytes. (A) PD-L1 in siCtrl MSCs (left panel) and siPD-L1 MSCs (right panel) was analyzed by surface staining. (B) Freshly isolated human PBLs were co-cultured without (left panels) or with siCtrl MSCs (middle panels) or siPD-L1 MSCs (right panels) for 3 days, followed by PMA/ionomycin stimulation for 6 hours. IL-17A production in CD3^+ T cells was assessed by intracellular staining. Representative data shown with numbers in the top right quadrants representing the percentages of IL-17A-producing CD3^+ T cells. Pooled data from PBLs (n=4) and 2 hMSC donors (donors A & B) are provided in (C). Folds of reversed phenotypes of silL-25 and siPD-L1 are provided in (D). (E) PD-L1 expression on siCtrl hMSCs (left panel) and silL-25 hMSCs (right panel) was assessed by cell surface staining Filled histograms represent isotype control. […] Pooled data provided in (F) of PD-L1 expression (indicated by fold-change in mean fluorescence intensity; MFI) on silL-25-hMSCs and siPD-L1-hMSCs (all 3 donors). […] (G) hMSCs were treated with indicated doses of rhIL-25 for 18 hours and assessed for cell surface PD-L1 expression by cell surface staining. […] (H) Human PBLs were treated with indicated doses of rhIL-25 for 18 hours, and assessed for cell surface PD-L1 expression on monocytes, gated using FSC and SSC, by flow cytometric analysis. […]

In assay [3] the test system is IL-17A production in CD3+ T cells. Briefly: IL-17A production in CD4 T cells treated with rhIL-25, intracellular staining. It is filed as cell-based, human. Particulars: rhIL-25 alone for 18 hours, then PMA/ionomycin 6 hours. As to the method:
FIG. 6. […] (A) Human CD4 T cells were treated with indicated doses of recombinant human IL-25 (rhIL-25) for 18 hours, followed by PMA/ionomycin stimulation for 6 hours. IL-17A production in CD3^+ T cells was assessed by intracellular staining. Numbers in the top right quadrants represent the percentages of IL-17A-producing CD3^+ T cells; (B) pooled data of 5 PBL donors. (C) Human CD4 T cells (n=4) were co-cultured without or with hMSCs (2 donors: B & C) in the absence or presence of transwell barriers. Pooled data from healthy donors are provided in (D). Data are shown as means±SD. **, p<0.01; n.s., not significant. […]
Cells were stained with antibodies as indicated: anti-human IL-25-PE (R&D Systems), mouse IgG1 isotype control-PE (R&D Systems), anti-human CD3-PE/Cy5 (BioLegend), anti-human CD4-PE (BioLegend), anti-human IL-17A-PE (eBioscience), anti-human IFN-γ-FITC (BioLegend), anti-human IL-22-PE (eBioscience), anti-human FOXP3-Alexa Fluor 488 (BD Pharmingen), anti-human CD274 […]-PE (eBioscience), mouse IgG1 isotype control-PE (eBioscience), anti-human IL-25R-PE (R&D Systems), and mouse IgG2b isotype control-PE (R&D Systems), anti-mouse CD4-APC (eBioscience), anti-mouse CD3e-PE/Cy5 (eBioscience), and anti-mouse/rat IL-17A-PE (eBioscience). Data was collected on BD FACSCalibur™ (BD Biosciences) instruments and analyzed with Cell Quest Pro software (BD Biosciences).

Assay [4] concerns myeloid-derived suppressor cells (MDSCs) in peripheral blood leukocytes. The assay can be described thus: Expansion of CD14-CD11b+CD33+ MDSCs from human PBLs by IL-25. Format: cell-based. The following applies: allogeneic PBL (2 donors), various doses of IL-25. As for the experimental part: FIG. 11. IL-25 expands […] myeloid-derived suppressor cells (MDSCs) in peripheral blood leukocytes (PBLs). Expansion of CD14^−CD11b^+CD33^+ cells from human PBLs by recombinant human IL-25. Allogeneic PBL (2 donors) were cultured alone or with addition of various doses of IL-25 as indicated. PBL were first gated on forward scatter (FSC)/side scatter (SSC) (R1) then analyzed for CD14^− and CD11b^+ (R2), and further analyzed for CD33^+ (R3, cell percentages denoted).
To further confirm that IL-25 can induce expansion of MDSCs from peripheral blood, Allogeneic PBL (2 donors) were cultured alone or with addition of various doses of IL-25 as indicated (FIG. 11). The treated cells were first gated on forward scatter (FSC)/side scatter (SSC) (R1) then analyzed for CD14^− and CD11b^+ (R2), and further analyzed for CD33^+ (R3, cell percentages denoted).

Turning to `COc1cccc(-c2cc(=O)c3ccccc3o2)c1N` [PD98059], in assay [1], the “IL-25-mediated induction of PD-L1 in human primary monocytes” value is “minimal effect”.
For the molecule `C[C@H](NC(=O)/C(C#N)=C/c1cccc(Br)n1)c1ccccc1` [WP1066, reference compound], the “IL-25-mediated induction of PD-L1 in human primary monocytes” value in assay [1] is given as “substantially abolished”. For the same molecule, the “PD-L1 expression in hMSCs” value in assay [2] (inhibitor for 6 hours (WP1066 2.5 μM; SP600125 25 μM)) was “strongly reduced”.

B1: rhIL-25: Human recombinant IL-25 (PeproTech); IL-25 also known as IL17E (protein, UniProt Q9H293 33-177, looked up)
Interleukin-25: YSHWPSCCPSKGQDTSEELLRWSTVPVPPLEPARPNRHPESCRASEDGPLNSRAISPWRYELDRDLNRLPQDLYHARCLCPHCVSLQTGSHMDPRGNSELLYHNQTVFYRRPCHGEKGTHKGYCLERRLYRVSLACVCVRPRVMG
B1: the “PD-L1 expression in monocytes” value in assay [1] (human PBLs treated with rhIL-25, indicated doses, 18 hours, dose-dependent) was “dramatically and significantly increased”. For the same molecule, the “surface expression of PD-L1 on hMSCs” value in assay [2] (exogenous rhIL-25, indicated doses, 18 hours) was “further upregulate surface expression of PD-L1 on hMSCs but not to a significant extent”. For the same molecule, the “suppression of Th17 responses (IL-17A in CD4 T cells)” value in assay [3] was “failed to suppress Th17 responses to a significant extent”. For the same molecule, in assay [4], the “expansion of MDSCs in PBLs” value is listed as “expands”.
